# Experimental data: the supplement of paper PMC10567573
# B1: HDAC6 (parent)
# chain: QYMNEGELRVLADTYDSVYLHPNS
# B2: RSPH3 (parent)
# chain: KAASLARNLAKRRRTYLGGAAGRS
# Variants of: B1
# Experiment: protein stability index of a GFP-peptide fusion (GPS, HEK-293T) (PSI 1-6); higher = more stable
# Details: c terminus: a fixed tail appended
# 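Note: lentivirally expressed fusions sorted by FACS into six bins by GFP to DsRed ratio, PSI derived from sequencing read proportions per bin multiplied by bin number.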
row,Variant,protein stability index
1,QYMNEGELRVLADTYDSVTLHPNS,3.2
2,QYMNEGELRVLADTYDSVNLHPNS,2.62
3,QYMNEGELRVLADTYDSVALHPNS,2.49
4,QYMNEGELRVLADTYDSVKLHPNS,1.71
5,QYMNEGELRVLADTYDSVDLHPNS,3.32
6,QYMNEGELRVLADTYDSVPLHPNS,2.32
7,QYMNEGELRVLADTYDSVFLHPNS,2.11
8,QYMNEGELRVLADTYDSVGLHPNS,3.72
9,QYMNEGELRVLADTYDSVELHPNS,3.03
10,QYMNEGELRVLADTYDSVSLHPNS,2.14
11,QYMNEGELRVLADTYDSVYLHPES,2.69
12,QYMNEGELRVLADTYDSVYLHPTS,2.03
13,QYMNEGELRVLADTYDSVYLHPLS,1.6
14,QYMNEGELRVLADTYDSVYLHPWS,1.46
15,QYMNEGELRVLADTYDSVYLHPYS,1.73
16,QYMNEGELRVLADTYDSVYLHPHS,1.94
17,QYMNEGELRVLADTYDSVYLHPVS,2.03
18,QYMNEGELRVPADTYDSVYLHPNS,3.49
19,QYMNEGELRVKADTYDSVYLHPNS,3.03
20,QYMNEGELRVMADTYDSVYLHPNS,2.98
21,QYMNEGELRVSADTYDSVYLHPNS,1.76
22,QYMNEGELRVRADTYDSVYLHPNS,2.61
23,QYMNEGELRVAADTYDSVYLHPNS,1.83
24,QYMNEGELRVFADTYDSVYLHPNS,2.01
25,QYMNEGKLRVLADTYDSVYLHPNS,1.76
26,QYMNEGQLRVLADTYDSVYLHPNS,1.66

row,Variant,protein stability index
1,QYMNEGALRVLADTYDSVYLHPNS,1.96
2,QYMNEGVLRVLADTYDSVYLHPNS,1.5
3,QYMNEGFLRVLADTYDSVYLHPNS,2.46
4,QYMNEGILRVLADTYDSVYLHPNS,1.81
5,QYMNEGELRVLADLYDSVYLHPNS,1.28
6,QYMNEGELRVLADYYDSVYLHPNS,2.92
7,QYMNEGELRVLADKYDSVYLHPNS,1.76
8,QYMNEGELRVLADWYDSVYLHPNS,1.43
9,QYMNEGELRVLADSYDSVYLHPNS,2.04
10,QYMNEGELRVLADEYDSVYLHPNS,2.2
11,QYMNEHELRVLADTYDSVYLHPNS,1.63
12,QYMNEEELRVLADTYDSVYLHPNS,2.19
13,QYMNEIELRVLADTYDSVYLHPNS,1.72
14,QYMNENELRVLADTYDSVYLHPNS,2.18
15,QYMNEVELRVLADTYDSVYLHPNS,1.97
16,QYMNEPELRVLADTYDSVYLHPNS,3.01
17,QYMNERELRVLADTYDSVYLHPNS,2.03
18,QYMNEMELRVLADTYDSVYLHPNS,1.6
19,QYMNELELRVLADTYDSVYLHPNS,2.51
20,QYMNEKELRVLADTYDSVYLHPNS,2.06
21,QYMNETELRVLADTYDSVYLHPNS,1.85
22,QYMNEFELRVLADTYDSVYLHPNS,2.94
23,QYMNEGELRVLADTIDSVYLHPNS,1.81
24,QYMNEGELRVLADTVDSVYLHPNS,2.38
25,QYMNEGELRVLADTRDSVYLHPNS,3.05
26,QYMNEGELRVLADTGDSVYLHPNS,2.6

row,Variant,protein stability index
1,QYMNEGELRVLADTSDSVYLHPNS,3.18
2,QYMNEGELRVLADTTDSVYLHPNS,2.82
3,QYMNEGELRVLADTADSVYLHPNS,2.75
4,QYMNEGELRVLADTEDSVYLHPNS,3.18
5,QYMNEGELRVLADTDDSVYLHPNS,3.86
6,QYMNEGELLVLADTYDSVYLHPNS,1.6
7,QYMNEGELDVLADTYDSVYLHPNS,2
8,QYMNEGELIVLADTYDSVYLHPNS,2.13
9,QYMNEGELYVLADTYDSVYLHPNS,1.87
10,QYMNEGELVVLADTYDSVYLHPNS,4.11
11,QYMNEGELCVLADTYDSVYLHPNS,1.48
12,QYMNEGELMVLADTYDSVYLHPNS,1.46
13,QYMNEGEIRVLADTYDSVYLHPNS,2.86
14,QYMNEGEKRVLADTYDSVYLHPNS,3
15,QYMNEGECRVLADTYDSVYLHPNS,2.33
16,QYMNEGETRVLADTYDSVYLHPNS,2.19
17,QYMNEGEFRVLADTYDSVYLHPNS,1.52
18,QYMNEGEQRVLADTYDSVYLHPNS,2.66
19,QYMNEGEGRVLADTYDSVYLHPNS,3.36
20,QYMNEGEHRVLADTYDSVYLHPNS,2.45
21,QYMNSGELRVLADTYDSVYLHPNS,1.92
22,QYMNVGELRVLADTYDSVYLHPNS,1.21
23,QYMNYGELRVLADTYDSVYLHPNS,2.03
24,QYMNCGELRVLADTYDSVYLHPNS,1.96
25,QYMNTGELRVLADTYDSVYLHPNS,2.02
26,QYMNMGELRVLADTYDSVYLHPNS,1.8

row,Variant,protein stability index
1,QYMNLGELRVLADTYDSVYLHPNS,2.12
2,QYSNEGELRVLADTYDSVYLHPNS,3.23
3,QYKNEGELRVLADTYDSVYLHPNS,3.39
4,QYANEGELRVLADTYDSVYLHPNS,3.17
5,QYVNEGELRVLADTYDSVYLHPNS,3.46
6,QYLNEGELRVLADTYDSVYLHPNS,2.38
7,QYDNEGELRVLADTYDSVYLHPNS,4.19
8,QYCNEGELRVLADTYDSVYLHPNS,3.07
9,QIMNEGELRVLADTYDSVYLHPNS,1.94
10,QEMNEGELRVLADTYDSVYLHPNS,2.9
11,QMMNEGELRVLADTYDSVYLHPNS,1.73
12,QVMNEGELRVLADTYDSVYLHPNS,3.27
13,QHMNEGELRVLADTYDSVYLHPNS,2.13
14,QSMNEGELRVLADTYDSVYLHPNS,2.71
15,QNMNEGELRVLADTYDSVYLHPNS,4.07
16,QGMNEGELRVLADTYDSVYLHPNS,3.27
17,QTMNEGELRVLADTYDSVYLHPNS,2.9
18,QLMNEGELRVLADTYDSVYLHPNS,2.68
19,QFMNEGELRVLADTYDSVYLHPNS,2.2
20,QDMNEGELRVLADTYDSVYLHPNS,3.19
21,QYMNEGELRVLADTYDSVYNHPNS,2.42
22,QYMNEGELRVLADTYDSVYQHPNS,2.58
23,QYMNEGELRVLADTYDSVYYHPNS,2.38
24,QYMNEGELRVLADTYDSVYAHPNS,2.54
25,QYMNEGELRVLADTYDSVYFHPNS,2
26,QYMNEGELRVLADTYDSVYDHPNS,3.27

row,Variant,protein stability index
1,QYMNEGELRHLADTYDSVYLHPNS,2.31
2,QYMNEGELRWLADTYDSVYLHPNS,2.22
3,QYMNEGELRELADTYDSVYLHPNS,2.46
4,QYMNEGELRMLADTYDSVYLHPNS,2.08
5,QYMNEGELRCLADTYDSVYLHPNS,2.51
6,QYMNEGELRRLADTYDSVYLHPNS,1.92
7,QYMNEGELRALADTYDSVYLHPNS,1.79
8,QYMNEGELRQLADTYDSVYLHPNS,3.27
9,QYMNEGELRFLADTYDSVYLHPNS,2.69
10,QYMNEGELRGLADTYDSVYLHPNS,3.15
11,QYMNEGELRPLADTYDSVYLHPNS,3.53
12,QYMNEGELRVLANTYDSVYLHPNS,2.23
13,QYMNEGELRVLAHTYDSVYLHPNS,1.77
14,QYMNEGELRVLASTYDSVYLHPNS,1.9
15,QYMNEGELRVLAGTYDSVYLHPNS,2.86
16,QYMNEGELRVLACTYDSVYLHPNS,1.2
17,QYMNEGELRVLADTYDVVYLHPNS,2.09
18,QYMNEGELRVLADTYDMVYLHPNS,1.95
19,QYMNEGELRVLADTYDGVYLHPNS,2.05
20,QYMNEGELRVLADTYDYVYLHPNS,1.47
21,QYMNEGELRVLADTYDFVYLHPNS,2.53
22,QYMNEGELRVLADTYDLVYLHPNS,2.02
23,QYMNEGELRVLADTYDTVYLHPNS,2.37
24,QYMNEGELRVLADTYDPVYLHPNS,3.32
25,QYMNEGELRVLADTYDDVYLHPNS,2.56
26,QYMNEGELRVLADTYDWVYLHPNS,2.57

row,Variant,protein stability index
1,QYMNEGELRVLADTYWSVYLHPNS,4.07
2,QYMNEGELRVLADTYSSVYLHPNS,3.08
3,QYMNEGELRVLADTYDSVYLHPNN,2.04
4,QYMNEGELRVLADTYDSVYLHPNA,1.44
5,QYMNEGELRVLADTYDSVYLHPNK,1.46
6,QYMNEGELRVLADTYDSVYLHPND,2.58
7,QYMNEGELRVLADTYDSVYLHPNF,1.58
8,QYMNEGELRVLADTYDSVYLHPNH,1.61
9,QYMNEGELRVLADTYDSVYLHPNP,1.91
10,QYMNEGELRVLADTYDSVYLHPNR,2.4
11,QYMNEGELRVLADTYDSVYLSPNS,1.55
12,QYMNEGELRVLADTYDSVYLEPNS,2.33
13,QYMNEGELRVLADTYDSVYLKPNS,1.92
14,QYMNEGELRVLADTYDSVYLYPNS,2.18
15,QYMNEGELRVLADTYDSVYLMPNS,1.47
16,QYMNEGELRVLADTYDSVYLLPNS,1.71
17,QYMNEGELRVLLDTYDSVYLHPNS,2.58
18,QYMNEGELRVLPDTYDSVYLHPNS,3.17
19,QYMNEGELRVLRDTYDSVYLHPNS,2.31
20,QYMNEGELRVLIDTYDSVYLHPNS,2.73
21,QYMNEGELRVLEDTYDSVYLHPNS,2.36
22,QYMNEGELRVLDDTYDSVYLHPNS,1.57
23,QYMGEGELRVLADTYDSVYLHPNS,1.89
24,QYMSEGELRVLADTYDSVYLHPNS,2.05
25,QYMYEGELRVLADTYDSVYLHPNS,1.93
26,QYMHEGELRVLADTYDSVYLHPNS,2.23

row,Variant,protein stability index
1,QYMDEGELRVLADTYDSVYLHPNS,1.61
2,QYMNEGELRVLADTYDSVYLHDNS,2.37
3,QYMNEGELRVLADTYDSVYLHHNS,2.4
4,QYMNEGELRVLADTYDSVYLHGNS,2.27
5,QYMNEGELRVLADTYDSVYLHSNS,1.68
6,QYMNEGELRVLADTYDSVYLHWNS,2.56
7,QYMNEGELRVLADTYDSVYLHVNS,1.83
8,QYMNEGELRVLADTYDSVYLHQNS,1.58
9,QYMNEGELRVLADTYDSVYLHENS,2.13
10,QYMNEGELRVLADTYDSVYLHINS,2.08
11,QYMNEGELRVLADTYDSVYLHTNS,1.66
12,QYMNEGELRVLADTYDSSYLHPNS,2.88
13,QYMNEGELRVLADTYDSYYLHPNS,2.21
14,QYMNEGELRVLADTYDSGYLHPNS,2.6
15,QYMNEGELRVLADTYDSFYLHPNS,2.23
16,QYMNEGELRVLADTYDSQYLHPNS,3.02
17,QYMNEGELRVLADTYDSDYLHPNS,2.87
18,QYMNEGELRVLADTYDSWYLHPNS,2.1
19,GYMNEGELRVLADTYDSVYLHPNS,1.89
20,AYMNEGELRVLADTYDSVYLHPNS,1.69
21,WYMNEGELRVLADTYDSVYLHPNS,2.21
22,KYMNEGELRVLADTYDSVYLHPNS,1.92
23,TYMNEGELRVLADTYDSVYLHPNS,1.84
24,FYMNEGELRVLADTYDSVYLHPNS,2.53

# Variants of: B2
# Experiment: as above
# Details: c terminus: a fixed tail appended
row,Variant,protein stability index
1,AAASLARNLAKRRRTYLGGAAGRS,1.98
2,FAASLARNLAKRRRTYLGGAAGRS,1.47
3,GAASLARNLAKRRRTYLGGAAGRS,3.77
4,TAASLARNLAKRRRTYLGGAAGRS,2.98
5,WAASLARNLAKRRRTYLGGAAGRS,2.29
6,HAASLARNLAKRRRTYLGGAAGRS,2.49
7,CAASLARNLAKRRRTYLGGAAGRS,1.87
8,KEASLARNLAKRRRTYLGGAAGRS,3.41
